The target in one test is Fas (human) (UniProt P25445). The experiment in a line: cell-based or functional assay.
For the next test, the target named is oxidized LDL (oxLDL) (UniProt P04114 28-4563, oxidized LDL particle; kind of oxidation not stated for this assay). The experiment in a line: cell-based or functional assay.
Chain of oxidized LDL (oxLDL) (P04114 28-4563 limits assumed): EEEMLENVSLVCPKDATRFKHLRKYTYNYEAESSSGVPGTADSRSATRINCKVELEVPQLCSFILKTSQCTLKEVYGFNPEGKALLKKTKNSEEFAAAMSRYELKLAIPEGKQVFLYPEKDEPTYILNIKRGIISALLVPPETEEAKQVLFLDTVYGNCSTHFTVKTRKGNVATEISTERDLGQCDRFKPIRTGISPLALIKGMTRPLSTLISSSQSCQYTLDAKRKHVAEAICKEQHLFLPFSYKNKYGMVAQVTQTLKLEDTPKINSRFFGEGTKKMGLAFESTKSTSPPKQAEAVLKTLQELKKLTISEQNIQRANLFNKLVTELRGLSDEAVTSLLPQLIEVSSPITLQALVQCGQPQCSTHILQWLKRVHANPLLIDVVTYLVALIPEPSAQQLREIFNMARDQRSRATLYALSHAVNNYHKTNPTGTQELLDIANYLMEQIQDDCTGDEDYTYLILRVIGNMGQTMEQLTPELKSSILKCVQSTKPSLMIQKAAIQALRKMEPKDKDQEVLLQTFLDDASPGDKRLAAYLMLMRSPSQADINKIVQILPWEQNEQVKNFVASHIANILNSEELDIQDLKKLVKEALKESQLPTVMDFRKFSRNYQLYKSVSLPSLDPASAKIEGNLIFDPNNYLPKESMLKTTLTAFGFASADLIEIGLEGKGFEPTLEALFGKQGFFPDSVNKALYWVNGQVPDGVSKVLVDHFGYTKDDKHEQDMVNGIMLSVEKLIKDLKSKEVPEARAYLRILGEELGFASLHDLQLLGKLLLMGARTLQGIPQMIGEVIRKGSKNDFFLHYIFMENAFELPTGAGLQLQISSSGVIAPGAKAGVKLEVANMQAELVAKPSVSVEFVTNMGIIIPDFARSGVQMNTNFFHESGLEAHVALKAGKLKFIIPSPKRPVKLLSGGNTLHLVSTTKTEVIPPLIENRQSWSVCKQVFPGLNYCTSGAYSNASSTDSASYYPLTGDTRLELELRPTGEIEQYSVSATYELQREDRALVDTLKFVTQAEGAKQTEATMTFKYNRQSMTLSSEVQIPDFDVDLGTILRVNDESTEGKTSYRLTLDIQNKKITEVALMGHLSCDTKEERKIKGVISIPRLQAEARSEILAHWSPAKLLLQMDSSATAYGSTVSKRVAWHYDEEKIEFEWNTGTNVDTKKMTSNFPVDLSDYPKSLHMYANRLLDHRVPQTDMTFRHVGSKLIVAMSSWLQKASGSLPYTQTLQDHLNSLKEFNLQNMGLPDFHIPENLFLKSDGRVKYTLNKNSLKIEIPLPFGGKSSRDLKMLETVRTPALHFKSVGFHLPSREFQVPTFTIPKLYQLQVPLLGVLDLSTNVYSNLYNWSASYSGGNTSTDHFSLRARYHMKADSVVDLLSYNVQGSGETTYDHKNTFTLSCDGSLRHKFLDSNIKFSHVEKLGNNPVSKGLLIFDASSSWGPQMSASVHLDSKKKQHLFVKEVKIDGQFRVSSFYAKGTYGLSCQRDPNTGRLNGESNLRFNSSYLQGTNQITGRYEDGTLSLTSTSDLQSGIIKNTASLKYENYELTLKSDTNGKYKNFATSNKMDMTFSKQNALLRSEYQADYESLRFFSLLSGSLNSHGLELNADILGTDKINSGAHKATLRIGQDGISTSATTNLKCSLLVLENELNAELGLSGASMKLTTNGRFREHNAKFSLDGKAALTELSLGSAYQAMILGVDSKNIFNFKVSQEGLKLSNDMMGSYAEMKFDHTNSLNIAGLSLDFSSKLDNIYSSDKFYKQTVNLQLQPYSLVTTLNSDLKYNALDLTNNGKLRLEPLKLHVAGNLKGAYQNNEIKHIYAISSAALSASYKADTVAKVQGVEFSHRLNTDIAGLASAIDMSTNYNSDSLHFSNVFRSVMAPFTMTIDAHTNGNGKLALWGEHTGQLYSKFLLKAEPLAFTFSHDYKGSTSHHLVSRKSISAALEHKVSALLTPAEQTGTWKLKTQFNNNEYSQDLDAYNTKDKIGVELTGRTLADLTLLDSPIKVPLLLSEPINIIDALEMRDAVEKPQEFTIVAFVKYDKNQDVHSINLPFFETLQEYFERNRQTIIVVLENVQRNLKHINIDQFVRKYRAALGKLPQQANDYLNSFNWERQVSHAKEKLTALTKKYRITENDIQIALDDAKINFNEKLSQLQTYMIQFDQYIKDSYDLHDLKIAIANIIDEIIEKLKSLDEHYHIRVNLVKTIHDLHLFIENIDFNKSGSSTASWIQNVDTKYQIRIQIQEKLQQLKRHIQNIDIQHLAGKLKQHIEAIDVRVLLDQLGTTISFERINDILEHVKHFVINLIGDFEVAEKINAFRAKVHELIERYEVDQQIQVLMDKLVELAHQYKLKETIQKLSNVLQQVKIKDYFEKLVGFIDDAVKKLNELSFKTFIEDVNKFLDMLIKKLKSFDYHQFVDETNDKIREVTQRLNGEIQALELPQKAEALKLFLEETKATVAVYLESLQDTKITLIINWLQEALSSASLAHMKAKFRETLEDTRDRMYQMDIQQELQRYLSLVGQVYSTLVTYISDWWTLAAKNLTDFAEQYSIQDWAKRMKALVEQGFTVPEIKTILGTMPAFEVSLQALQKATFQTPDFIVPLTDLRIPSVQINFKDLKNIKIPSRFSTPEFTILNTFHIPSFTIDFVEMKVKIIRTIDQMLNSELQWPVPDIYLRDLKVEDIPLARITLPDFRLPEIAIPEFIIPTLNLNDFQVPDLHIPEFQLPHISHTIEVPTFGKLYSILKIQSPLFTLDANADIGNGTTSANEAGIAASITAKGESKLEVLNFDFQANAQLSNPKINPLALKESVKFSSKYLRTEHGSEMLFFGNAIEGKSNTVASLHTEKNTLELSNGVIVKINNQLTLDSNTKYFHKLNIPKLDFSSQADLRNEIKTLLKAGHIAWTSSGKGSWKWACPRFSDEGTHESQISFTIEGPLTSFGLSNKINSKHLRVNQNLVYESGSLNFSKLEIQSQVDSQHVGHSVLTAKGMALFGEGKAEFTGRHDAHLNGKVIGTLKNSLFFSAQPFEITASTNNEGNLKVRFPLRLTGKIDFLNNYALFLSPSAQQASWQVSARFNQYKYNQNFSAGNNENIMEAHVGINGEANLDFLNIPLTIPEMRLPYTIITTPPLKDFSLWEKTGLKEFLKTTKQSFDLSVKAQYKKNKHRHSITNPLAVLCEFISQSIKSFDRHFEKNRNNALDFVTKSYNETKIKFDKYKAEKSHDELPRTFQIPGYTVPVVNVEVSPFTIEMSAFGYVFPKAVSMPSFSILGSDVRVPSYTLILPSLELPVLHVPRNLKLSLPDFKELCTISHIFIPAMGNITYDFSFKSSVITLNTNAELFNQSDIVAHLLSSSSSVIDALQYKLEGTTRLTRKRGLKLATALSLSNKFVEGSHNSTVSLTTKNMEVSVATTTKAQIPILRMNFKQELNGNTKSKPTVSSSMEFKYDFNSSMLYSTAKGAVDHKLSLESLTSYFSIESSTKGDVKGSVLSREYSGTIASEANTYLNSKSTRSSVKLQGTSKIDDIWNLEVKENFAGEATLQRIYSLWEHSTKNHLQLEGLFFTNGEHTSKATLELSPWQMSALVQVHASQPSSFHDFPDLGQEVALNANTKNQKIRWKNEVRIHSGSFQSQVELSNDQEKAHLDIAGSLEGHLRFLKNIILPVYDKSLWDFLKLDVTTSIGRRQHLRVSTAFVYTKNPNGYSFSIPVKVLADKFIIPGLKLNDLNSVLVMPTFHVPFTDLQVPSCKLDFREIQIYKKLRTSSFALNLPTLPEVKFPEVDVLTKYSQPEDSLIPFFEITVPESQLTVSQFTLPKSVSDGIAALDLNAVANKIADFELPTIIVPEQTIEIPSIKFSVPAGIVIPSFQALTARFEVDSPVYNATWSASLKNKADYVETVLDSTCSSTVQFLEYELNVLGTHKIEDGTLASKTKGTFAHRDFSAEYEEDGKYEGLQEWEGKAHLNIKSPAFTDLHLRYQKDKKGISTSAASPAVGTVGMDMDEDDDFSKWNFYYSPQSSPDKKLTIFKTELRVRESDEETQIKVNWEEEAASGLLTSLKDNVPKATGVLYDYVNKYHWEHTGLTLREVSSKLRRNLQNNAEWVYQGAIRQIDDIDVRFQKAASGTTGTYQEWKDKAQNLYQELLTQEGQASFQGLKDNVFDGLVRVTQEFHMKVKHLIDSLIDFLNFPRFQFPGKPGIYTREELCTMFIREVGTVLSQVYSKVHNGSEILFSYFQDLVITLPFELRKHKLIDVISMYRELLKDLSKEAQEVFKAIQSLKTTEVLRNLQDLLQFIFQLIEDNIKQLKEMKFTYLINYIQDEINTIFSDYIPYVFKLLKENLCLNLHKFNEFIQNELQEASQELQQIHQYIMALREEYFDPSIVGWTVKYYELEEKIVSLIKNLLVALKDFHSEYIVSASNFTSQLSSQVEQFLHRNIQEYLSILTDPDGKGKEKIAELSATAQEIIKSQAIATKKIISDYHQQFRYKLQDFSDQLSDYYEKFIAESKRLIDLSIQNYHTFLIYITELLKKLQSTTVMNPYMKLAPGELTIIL

Chain of Fas (human) (P25445 26-335): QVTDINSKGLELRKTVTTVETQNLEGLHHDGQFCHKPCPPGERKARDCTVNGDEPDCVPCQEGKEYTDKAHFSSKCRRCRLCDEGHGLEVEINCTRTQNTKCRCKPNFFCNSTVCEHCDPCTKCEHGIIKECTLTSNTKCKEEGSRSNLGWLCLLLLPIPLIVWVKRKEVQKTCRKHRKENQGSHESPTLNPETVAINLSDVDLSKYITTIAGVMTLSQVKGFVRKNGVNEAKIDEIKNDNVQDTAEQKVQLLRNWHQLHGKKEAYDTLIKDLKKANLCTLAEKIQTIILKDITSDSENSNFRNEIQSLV

“soluble Fas ligand (from UniProt P48023 134-281)” registered a release of FAS from PBMCs of SLE patients with Fas (human) of 73%.

B1: orticumab (antibody, human IgG1, lambda, V domains shown)
VH: EVQLLESGGGLVQPGGSLRLSCAASGFTFSNAWMSWVRQAPGKGLEWVSSISVGGHRTYYADSVKGRSTISRDNSKNTLYLQMNSLRAEDTAVYYCARIRVGPSGGAFDYWGQGTLVTVSS
VL: QSVLTQPPSASGTPGQRVTISCSGSNTNIGKNYVSWYQQLPGTAPKLLIYANSNRPSGVPDRFSGSKSGTSASLAISGLRSEDEADYYCASWDASLNGWVFGGGTKLTVLG
For the molecule B1, in the test with oxidized LDL (oxLDL), the “IC50 for MCP-1 inhibition” value was ~10 nM.

These data come from patent US20190284268A1 (ABCENTRA, published 2019).
